{
  "source": "patent US20090137493A1",
  "about": "“Inhibition of tumor metastases using protein kinase C (PKC) inhibitors” (priority 2007, published 2009)",
  "key": {"[1]": {"test_system": "4T1 murine mammary cancer cells", "experiment": "Lung metastasis of luciferase-tagged 4T1 tumors in mice, imaging (relative light units)", "assay_type": "in vivo", "conditions": "4T1-luciferase tumor-bearing mice, osmotic pump, about 35 mg/kg/day, four weeks", "description": "To determine whether specific PKC inhibitors could reduce the amount of PKC translocation/activation in vivo and thereby reduce tumor cell metastasis, animals were administered an αPKC peptide inhibitor, or appropriate control, via an implanted osmotic pump, following the injection of luciferase-tagged tumor cells. […] The data are summarized in the bar graph shown in FIG. 4, along with similar data relating to the use of a βIIV5-3-TAT conjugate peptide (βPKC; SEQ ID NO: 27). The extent of lung metastasis is expressed as relative light units.\nBalb/c female mice (6 weeks old) were injected semi-orthotopically with 4T1 murine mammary cancer cells tagged with luciferase ([…] cells/100 μL). One week later, an osmotic minipump was implanted subcutaneously in each animal, for delivery of saline (control), TAT peptide (control, YGRKKRRQRRR, SEQ ID NO: 25), the peptide inhibitor αV5-3 (QLVIAN, SEQ ID NO: 6) attached via an N-terminal disulfide bond to TAT peptide (YGRKKRRQRRR-CC-QLVIAN, SEQ ID NO: 26).\nIn other experiments, the peptide inhibitor βIIV5-3 (QEVIAN, SEQ ID NO: 13) or εV1-2 (EAVSLKPT, SEQ ID NO: 20) is attached via an N-terminal disulfide bond to the TAT peptide (SEQ ID NOs: 27 and 28, respectively). The TAT control, αV5-3-TAT, βIIV5-3-TAT, or εV1-2-TAT conjugate peptides are administered at about 35 mg/kg/day for two and four weeks.\nAfter two weeks of treatment with αV5-3-TAT, some animals were selected form imaging (IVIS® 29, Xenogen Corporation, Alameda, Calif.) and analysis, with the remaining animals imaged after four weeks of treatment.\nFIG. 4 is a bar graph showing the extent of lung metastasis, expressed as relative light units (based on imaging as exemplified in FIG. 3), in tumor-bearing mice treated for four weeks with saline, the αV5-3-TAT conjugate peptide (αPKC), or the βIIV5-3-TAT conjugate peptide (βPKC). The extent of lung metastasis, quantified approximately by the relative light units, for mice treated with saline, the αPKC inhibitor, and the βIIV5-3 PKC inhibitor peptide is shown. The extent of lung metastases is reduced in the animals treated with the αPKC inhibitor."}, "[2]": {"test_system": "tumor cells", "experiment": "Histology of lung tissue after fatpad implantation or intravenous injection of tumor cells", "assay_type": "in vivo, mice", "conditions": "four weeks after fatpad implantation or two weeks after intravenous injection of tumor cells, versus TAT", "text": "FIGS. 8A-8B are computer-generated photomicrographs of lung tissue from mice four weeks following fatpad implantation of tumor cells. Osmotic pumps were implanted 1 week after fatpad implantation, for delivering TAT (control; FIG. 8A) or αV5-3-TAT peptide (PKC a inhibitor; FIG. 8B).\nFIGS. 8C-8D are computer-generated photomicrographs of lung tissue from mice two weeks after intravenous injection of tumor cells. Osmotic pumps were implanted two days prior to […], for delivering TAT (control; FIG. 8C) or αV5-3-TAT peptide (PKC a inhibitor; FIG. 8D).\nFIGS. 8A-8D are computer-generated photomicrographs of lung tissue from mice four weeks following fatpad implantation of tumor cells (FIGS. 8A-8B) or two weeks after intravenous injection of tumor cells (FIGS. 8C-8D)."}, "[3]": {"experiment": "Serum levels of liver enzymes AST and ALT in treated animals", "assay_type": "in vivo", "text": "(§1) FIGS. 11A-11B are bar graphs showing the relative serum levels of liver enzymes aspartate transaminase (AST; FIG. 11A) and alanine transaminase (ALT; FIG. 11B) in animals treated with saline or TAT (untreated) or the αV5-3-TAT peptide (aV5-3). FIGS. 11C-11E are bar graphs showing the relative serum levels of white blood cells (FIG. 11C), lymphocytes (FIG. 11D), and neutrophils (FIG. 11E)."}, "[4]": {"test_system": "4T1 tumor cells", "experiment": "Growth rate of 4T1 tumor cells in vitro", "assay_type": "cell-based, mouse", "conditions": "doses of 0, 1, 5 and 10 μM, compared to TAT carrier peptide control", "description": "FIGS. 6B-6C are bar graphs showing the affect of the αV5-3-TAT peptide on growth rate of JC tumor cells (FIG. 6B) and 4T1 tumor cells (FIG. 6C) in vitro. The cells treated with the TAT carrier peptide (TAT) or with αV5-3-TAT peptide (PKC alpha inhibitor), at doses of 0, 1, 5, and 10 μM.\nTo determine if the effects observed with the α and βIIPKC peptide inhibitors was due to a decrease in metastasis as opposed to a decrease in primary tumor growth, animals injected with 4T1 tumor cells were treated with saline, the αV5-3-TAT conjugate peptide (αPKC), or the βIIV5-3-TAT conjugate peptide (βPKC) and the number of tumors cells at the primary site of injection were determined."}, "[5]": {"test_system": "4T1 cells", "experiment": "Wound healing (migration) assay, 4T1", "assay_type": "cell-based, mouse", "conditions": "peptide 1 uM, re-applied every 2 h for 8 h", "description": "FIGS. 16A-16D are micrographs showing the efficacy of TAT carrier peptide (TAT; FIG. 16A), αV5-3-TAT peptide (Alpha; FIG. 16B), βIIV5-3 peptide (Beta2; FIG. 16C), and εV1-2 (Epsilon; FIG. 16D) on 4T1 cell migration.\nTo investigate the role of PKC inhibitors in reducing the migration of tumor cells, in vitro migration assays were performed using MDA-MB-231 breast cancer cells (FIGS. 12A-12D), MCF-7 breast cancer cell (FIGS. 13A-13D), JC cells (FIGS. 15A-15D), and 4T1 cells (FIGS. 16A-16D), in the presence of TAT carrier peptide (TAT), αV5-3-TAT peptide (Alpha), βIIV5-3 peptide (Beta2), or εV1-2 peptide (Epsilon).\nWound healing assay: Human or mouse breast cancer cell lines were grown in 6-well plates until about 90% confluent. Cells were then grown in serum free media overnight, before media was changed to media +1% FBS and peptide PKC inhibitors added (1 uM), at the same time a pipette tip was drawn across the cell layer to create a scrape ‘wound’. PKC inhibitors were re-applied every 2 h for a total of 8 h, before cells were left for a further 12 h and then the scrape was examined under phase contrast microscopy."}, "[6]": {"experiment": "Blood cell numbers (white blood cells, lymphocytes, neutrophils) in treated animals", "assay_type": "in vivo", "text": "as §1\nRather, the numbers of white blood cells (FIG. 11C), lymphocytes (FIG. 11D), and neutrophils (FIG. 11E) were all increased in αV5-3 treated animals compared to control (TAT) treated animals."}},
  "note": "Bridges are numbered along the chain shown (N, C = ends). Where no end group is shown, it is not given here.",
  "data": [
    {"substance": "YGRKKRRQRRR-CC-QLVIAN (YGRKKRRQRRRCCQLVIAN; disulfide 12-13 (inferred)) [αV5-3-TAT]", "values": [
      {"measurement": "effect on lung metastasis compared to control animals (in words)", "setting": "[1]", "result": "reduced"},
      {"measurement": "reduction of lung metastasis compared to control animals", "setting": "[1]", "result": "4 to 5", "unit": "fold"},
      {"measurement": "invasion of lung tissues by tumor cells (histology)", "setting": "[2]", "result": "reduced"},
      {"measurement": "decrease of relative serum level of aspartate transaminase (AST)", "setting": "[3]; treated animals versus saline or TAT, FIG. 11A", "result": "about 5 fold"},
      {"measurement": "decrease of relative serum level of alanine transaminase (ALT)", "setting": "[3]; treated animals versus saline or TAT, FIG. 11B", "result": "4-5 fold"},
      {"measurement": "serum AST/ALT levels (marker of damage or toxicity of the liver)", "setting": "[3]; tumor-bearing treated animals", "result": "reversed abnormally elevated level of serum AST/ALT levels (a marker of damage or toxicity of the liver) to the normal range"},
      {"measurement": "inhibition of growth of 4T1 tumor cells in vitro", "setting": "[4]", "result": "does not substantially inhibit"},
      {"measurement": "migration of 4T1 cells in vitro", "setting": "[5]", "result": "did not affect"},
      {"measurement": "numbers of white blood cells", "setting": "[6]; compared to control (TAT) treated animals, FIG. 11C", "result": "increased"},
      {"measurement": "numbers of lymphocytes", "setting": "[6]; compared to control (TAT) treated animals, FIG. 11D", "result": "increased"},
      {"measurement": "numbers of neutrophils", "setting": "[6]; compared to control (TAT) treated animals, FIG. 11E", "result": "increased"},
      {"measurement": "signs of immunosuppression", "setting": "[6]; treated animals, FIGS. 11C-11E", "result": "no signs of immunosuppression"}
    ]}
  ]
}
